Among the data in paper PMC11570452, “MOTS-c modulates skeletal muscle function by directly binding and activating CK2” (iScience, 2024) are Kd values, retold here.

For the experiment, the target named is T1, CK2α (recombinant, GenScript) (UniProt P68400 1-391).
T1 construct: CK2α, catalytic alpha subunit of casein kinase II; No catalogue number, species or construct is printed; also called CK2α subunit; CK2 alpha; source: bought: GenScript
As to the kind of experiment: SPR; Biacore T200; MOTS-c or K14Q MOTS-c (10 μg/mL, 10 mM sodium acetate pH 5.0) immobilised on CM5 chip (278 RU and 193 RU); first 70 nM CK2α or CK2β, then CK2α at 2.5, 5.0, 10 and 20 nM flowed at 30 μL/min in 0.01 M HEPES, 0.15 M NaCl, 0.3 mM EDTA, 0.05% tween. The settings on record: both partners purified.

T1 sequence (P68400 whole entry): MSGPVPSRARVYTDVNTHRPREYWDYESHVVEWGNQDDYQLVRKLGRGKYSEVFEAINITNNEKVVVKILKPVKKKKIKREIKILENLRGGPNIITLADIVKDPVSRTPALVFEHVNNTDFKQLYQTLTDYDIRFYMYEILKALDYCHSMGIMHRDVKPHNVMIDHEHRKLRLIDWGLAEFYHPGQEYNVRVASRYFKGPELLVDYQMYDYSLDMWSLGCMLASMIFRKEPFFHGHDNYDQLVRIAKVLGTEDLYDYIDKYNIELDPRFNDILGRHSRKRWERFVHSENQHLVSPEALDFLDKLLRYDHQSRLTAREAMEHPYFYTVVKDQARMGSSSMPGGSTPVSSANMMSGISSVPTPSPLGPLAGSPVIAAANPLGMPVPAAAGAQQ

B1: MOTS-c (mitochondrial open reading frame of the 12S ribosomal RNA type-c), wild type (peptide)
peptide: MRWQEMGYIFYPRKLR
notes: MOTS-c, human, 16-amino acid microprotein encoded in the mitochondrial 12S rRNA region; also called WT MOTS-c; synthetic MOTS-c; source: synthetic peptide, bought: GenScript; for the co-IP injected into mice (7.5 mg/kg) and found in tissue lysate
As a reminder, the Kd is a measure of binding affinity in units of concentration. As for B1, the dissociation constant (Kd) turned out to be 1 nM.

B2: K14Q MOTS-c (naturally occurring MOTS-c variant) (peptide, UniProt A0A0C5B5G6 1-16, looked up)
peptide: MRWQEMGYIFYPRQLR
notes: MOTS-c, human, natural variant m.1382A>C causing K14Q; source: synthetic peptide, bought: GenScript
With B2, the dissociation constant Kd worked out at 16.2 nM.
